Test results: PMC10713628, “UniKP: a unified framework for the prediction of enzyme kinetic parameters” (Nature Communications, 2023)

B1: AsTAL (Armillaria solidipes) (protein)
chain: MPASVFDDINSETKSGKGVGGVSGAHRTPSLLAKFLDSHKELKSYRNGRPVKVDGHTLSIAAVTAAARYNATVDLDGSPQVKAGVMKSRAVIADKVDNGTSVYGVSTGFGGSADTRTDQPLKLGQALLQHQHAGVLPSSDRTLDVLPLLDPMASTSMPESWVRGAMLVRMNSLIRGHSGVRWELLEKINELLRANITPVVPLRSSISASGDLSPLSYVAGTLVANPSIRVFDGPKKFGARKMVSSKDALASHGIQPISLVSKEGLGILNGTAFSASVASLALNDAVHLALLAQICTALGTEALSGTLGNYAPFIHATARPHPGQVESARHIWNLLRGSKLATTHEEEVSINQDKYSLRQDRYPLRTAPQFLGPQIEDILSALSTVIQECNSTTDNPLIDGETGEVHHGGNFQAMAVSNAMEKTRLALHHIGRLLFAQSTELVNPVMNHGLPPSLAASDPSLNYHGKGVDIATAAYVAELGYLAGPVTTHIQSAEMHNQAVNSLALISARATVNALEVLTMLMSSYLYLLCQAVDLRALRREFNTGLKSILSEELSAILGSQLSSQEIDISVSSMWGVVQTTLDKTTTMDAVDQMREVATACIPALIETVSRTNAINNALSSISQFRTNVASKATKLMAELRSSYLLGGRGPAPAGPYLGKTRAVYEYIRITLGVKMHGIENLGSFPNGLGVDDVTIGQNITAIFEAIRDGNFQDAVADLFEVLPHVKL
notes: codon-optimised synthetic gene in pET32a, E. coli BL21(DE3); purified; tags not described
B2: RgTAL (Rhodotorula glutinis) (protein)
chain: MAPRPTSQSQARTCPTTQVTQVDIVEKMLAAPTDSTLELDGYSLNLGDVVSAARKGRPVRVKDSDEIRSKIDKSVEFLRSQLSMSVYGVTTGFGGSADTRTEDAISLQKALLEHQLCGVLPSSFDSFRLGRGLENSLPLEVVRGAMTIRVNSLTRGHSAVRLVVLEALTNFLNHGITPIVPLRGTISASGDLSPLSYIAAAISGHPDSKVHVVHEGKEKILYAREAMALFNLEPVVLGPKEGLGLVNGTAVSASMATLALHDAHMLSLLSQSLTAMTVEAMVGHAGSFHPFLHDVTRPHPTQIEVAGNIRKLLEGSRFAVHHEEEVKVKDDEGILRQDRYPLRTSPQWLGPLVSDLIHAHAVLTIEAGQSTTDNPLIDVENKTSHHGGNFQAAAVANTMEKTRLGLAQIGKLNFTQLTEMLNAGMNRGLPSCLAAEDPSLSYHCKGLDIAAAAYTSELGHLANPVTTHVQPAEMANQAVNSLALISARRTTESNDVLSLLLATHLYCVLQAIDLRAIEFEFKKQFGPAIVSLIDQHFGSAMTGSNLRDELVEKVNKTLAKRLEQTNSYDLVPRWHDAFSFAAGTVVEVLSSTSLSLAAVNAWKVAAAESAISLTRQVRETFWSAASTSSPALSYLSPRTQILYAFVREELGVKARRGDVFLGKQEVTIGSNVSKIYEAIKSGRINNVLLKMLA
notes: full length 693 residues; pET32a, E. coli BL21(DE3); purified; tags not described

Key:
[1] = system: N[C@@H](Cc1ccc(O)cc1)C(=O)O; assay: purified protein; settings: Tris-HCl, 40 °C, 30 min, pH 9.5 in table note (buffer pH 8.5 in methods)
[2] = system: T1, N[C@@H](Cc1ccc(O)cc1)C(=O)O; assay: purified protein; format: biochemical, Rhodotorula glutinis; settings: Tris-HCl, 40 °C, 30 min, pH 9.5 in table note (buffer pH 8.5 in methods)
T1 construct: full length 693 residues; pET32a, E. coli BL21(DE3); purified; tags not described

[3] = system: T2, PpTAL; assay: coumaric acid formation at […] nm; format: biochemical, Pleurotus pulmonarius; settings: Tris-HCl, 40 °C, 30 min; pH 9.5 in table note (buffer pH 8.5 in methods)
T2 construct: gene TAL; codon-optimised synthetic gene in pET32a, E. coli BL21(DE3); purified; tags not described

[4] = system: T3, TALclu; assay: coumaric acid formation at […] nm; format: biochemical, Chryseobacterium luteum; settings: Tris-HCl, 40 °C, 30 min; pH 9.5 in table note (buffer pH 8.5 in methods)
T3 construct: gene TAL; codon-optimised synthetic gene in pET32a, E. coli BL21(DE3) per general method; purified; tags not described

[5] = system: T4, TrTAL; assay: coumaric acid formation at […] nm; format: biochemical, Tephrocybe rancida; settings: Tris-HCl, 40 °C, 30 min; pH 9.5 in table note (buffer pH 8.5 in methods)
T4 construct: gene TAL; codon-optimised synthetic gene in pET32a, E. coli BL21(DE3); purified; tags not described

[6] = system: T5, LeTAL; assay: coumaric acid formation at […] nm; format: biochemical, Lentinula edodes; settings: Tris-HCl, 40 °C, 30 min; pH 9.5 in table note (buffer pH 8.5 in methods)
T5 construct: gene TAL; codon-optimised synthetic gene in pET32a, E. coli BL21(DE3); purified; tags not described

[7] = substrate: N[C@@H](Cc1ccc(O)cc1)C(=O)O; assay: purified protein; format: biochemical, Armillaria solidipes; settings: Tris-HCl, 40 °C, 30 min, pH 9.5 in table note (buffer pH 8.5 in methods)
[8] = substrate: N[C@@H](Cc1ccc(O)cc1)C(=O)O; assay: purified protein; format: biochemical, Rhodotorula glutinis; settings: Tris-HCl, 40 °C, 30 min, pH 9.5 in table note (buffer pH 8.5 in methods)

| Molecule | Km [2] [µM] | kcat [2] [s⁻¹] | kcat/Km [2] [M⁻¹ s⁻¹] | also measured |
| --- | --- | --- | --- | --- |
| PcTAL (Puccinia coronata f. sp. avenae) |  |  |  | Km [1]: 170 µM; kcat [1]: 66.6 s⁻¹; kcat/Km [1]: 392000 M⁻¹ s⁻¹ |
| RgTAL (Rhodotorula glutinis; I668S) | 3850 | 53.6 | 13900 |  |
| IsTAL (Ilyonectria sp. MPI-CAGE-AT-0026) |  |  |  | Km [1]: 570 µM; kcat [1]: 120 s⁻¹; kcat/Km [1]: 210000 M⁻¹ s⁻¹ |
| RgTAL (Rhodotorula glutinis; E366W) | 850 | 31 | 36500 |  |
| RgTAL (Rhodotorula glutinis; Q337D) | 850 | 34.8 | 40900 |  |
| RgTAL (Rhodotorula glutinis; Q337C) | 6480 | 96.8 | 14900 |  |
| RgTAL (Rhodotorula glutinis; E366H) | 480 | 40.3 | 84000 |  |
| RgTAL (Rhodotorula glutinis; K603P) | 1150 | 52.6 | 45700 |  |
| RgTAL (Rhodotorula glutinis; R489T) | 710 | 817 | 1.15e+06 |  |
| RgTAL (Rhodotorula glutinis; Q10Y) | 820 | 884 | 1.08e+06 |  |
| N[C@@H](Cc1ccc(O)cc1)C(=O)O [L-tyrosine] |  |  |  | Km [3]: 40 µM; Km [4]: 50 µM; Km [5]: 40 µM; Km [6]: 70 µM |
| RgTAL (Rhodotorula glutinis; E587V) | 330 | 163 | 494000 |  |
| AaTAL (Aspergillus arachidicola) |  |  |  | Km [1]: 30 µM; kcat [1]: 25.2 s⁻¹; kcat/Km [1]: 841000 M⁻¹ s⁻¹ |
| B1 |  |  |  | Km [7]: 540 µM; kcat [7]: 449 s⁻¹; kcat/Km [7]: 831000 M⁻¹ s⁻¹ |
| B2 |  |  |  | Km [8]: 360 µM; kcat [8]: 118 s⁻¹; kcat/Km [8]: 327000 M⁻¹ s⁻¹ |
